Experimental data published in publication PMC3762189, “Mechanism of synergistic activation of Arp2/3 complex by cortactin and N-WASP” (eLife, 2013).

Target: G-actin (rabbit muscle actin monomers) (rabbit, UniProt P68135 1-377)
Assay: fluorescence polarisation; competition: anisotropy of 50 nM Rhodamine-VCA with 150 nM G-actin and increasing VCA or VCA mutants; 10 mM Hepes pH 7.0, 50 mM KCl, 1 mM MgCl2, 1 mM EGTA, 1 mM DTT, 0.2 mM ATP, 350 nM Latrunculin B; KD is the mean of at least three fits
Conditions: both partners purified

B1: N-WASP-VCA (domain or fragment)
chain: PVSCSGRDALLDQIRQGIQLKSVTDAPESTPPAPAPTSGIVGALMEVMQKRSKAIHSSDEDEDEDDDEDFEDDDEWED
notes: N-WASP, VCA region (verprolin homology, central, acidic); The text implies a GST tag with a TEV site on the VCA constructs; also called monomeric VCA; WT; source: purified as described previously (Hetrick et al., 2013)
Kd: 560 ± 30 nM
